The record followed here is PMC10397247.

Assay [1] addresses T1, 4H3843-bN.
T1 chain: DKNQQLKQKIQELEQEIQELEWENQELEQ
Nature of the assay: two-hybrid library CCNG1.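 Further: natural log of median RNA to DNA barcode read ratio; higher means stronger binding.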

For assay [2], the target named is T2, 4H883-bN.
T2 chain: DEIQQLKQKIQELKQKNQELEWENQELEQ
Nature of the assay: two-hybrid library CCNG1.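 Further: natural log of median RNA to DNA barcode read ratio; higher means stronger binding.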

Assay [3] has as its target T3, 4H967-bN.
T3 chain: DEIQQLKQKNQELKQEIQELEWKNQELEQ
Nature of the assay: two-hybrid library CCNG1.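 Further: natural log of median RNA to DNA barcode read ratio; higher means stronger binding.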

Assay [4] addresses T4, 4H462-bN.
T4 chain: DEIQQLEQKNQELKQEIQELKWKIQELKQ
In words: two-hybrid library CCNG1.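 Further: natural log of median RNA to DNA barcode read ratio; higher means stronger binding.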

Assay [5] addresses T5, 4H918-bN.
T5 chain: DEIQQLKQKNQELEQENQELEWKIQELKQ
Nature of the assay: two-hybrid library CCNG1.

Assay [6] addresses T6, 4H568-bN.
T6 chain: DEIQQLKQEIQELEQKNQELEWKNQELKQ
Nature of the assay: two-hybrid library CCNG1.

Assay [7] deals with T7, 4H687-bN.
T7 chain: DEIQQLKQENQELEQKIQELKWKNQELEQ
Nature of the assay: two-hybrid library CCNG1.

The target of assay [8] is T8, 4H953-bN.
T8 chain: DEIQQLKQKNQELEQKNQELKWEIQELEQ
Nature of the assay: two-hybrid library CCNG1.

The target of assay [9] is T9, 4H797-bN.
T9 chain: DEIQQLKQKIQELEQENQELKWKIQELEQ
Nature of the assay: two-hybrid library CCNG1.

Assay [10] deals with T10, 4H72-bN.
T10 chain: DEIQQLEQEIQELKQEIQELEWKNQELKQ
Nature of the assay: two-hybrid library CCNG1.

For assay [11], the target named is T11, 4H4001-bN.
T11 chain: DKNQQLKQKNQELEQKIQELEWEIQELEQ
Nature of the assay: two-hybrid library CCNG1.

Assay [12] concerns the target T12, 4H607-bN.
T12 chain: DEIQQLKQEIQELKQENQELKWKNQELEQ
In words: two-hybrid library CCNG1.

Assay [13] concerns the target T13, 4H2729-AA.
T13 chain: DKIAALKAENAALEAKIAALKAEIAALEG
In words: two-hybrid library CCmax. The settings on record: mean of both orientations.

Assay [14] deals with T14, 4H2754-AA.
T14 chain: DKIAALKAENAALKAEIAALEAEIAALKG
In words: two-hybrid library CCmax. The settings on record: mean of both orientations.

Assay [15] concerns the target T15, 4H3343-AA.
T15 chain: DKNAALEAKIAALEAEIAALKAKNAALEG
In words: two-hybrid library CCmax. The following applies: mean of both orientations.

In assay [16] the target is T16, 4H2393-AA.
T16 chain: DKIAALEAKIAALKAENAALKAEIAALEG
Nature of the assay: two-hybrid library CCmax. The following applies: mean of both orientations.

Assay [17] addresses T17, 4H2883-AA.
T17 chain: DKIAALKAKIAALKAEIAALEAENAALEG
Nature of the assay: two-hybrid library CCmax. The settings on record: mean of both orientations.

Assay [18] has as its target T18, 4H566-AA.
T18 chain: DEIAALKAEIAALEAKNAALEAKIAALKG
Nature of the assay: two-hybrid library CCmax. The following applies: mean of both orientations.

For assay [19], the target named is T19, 4H717-AA.
T19 chain: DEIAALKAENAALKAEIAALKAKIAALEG
In words: two-hybrid library CCmax. The following applies: mean of both orientations.

In assay [20] the target is T20, 4H780-AA.
T20 chain: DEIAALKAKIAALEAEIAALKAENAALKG
Nature of the assay: two-hybrid library CCmax. The following applies: mean of both orientations.

The target of assay [21] is T21, 4H993-AA.
T21 chain: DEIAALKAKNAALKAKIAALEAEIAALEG
Nature of the assay: two-hybrid library CCmax. The settings on record: mean of both orientations.

Assay [22] addresses T22, 4H906-AA.
T22 chain: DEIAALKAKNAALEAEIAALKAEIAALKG
Nature of the assay: two-hybrid library CCmax. The following applies: mean of both orientations.

Assay [23] addresses T23, 4H48-AA.
T23 chain: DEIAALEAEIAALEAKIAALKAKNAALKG
Nature of the assay: two-hybrid library CCmax. The settings on record: mean of both orientations.

The target in assay [24] is T24, 4H3627-AA.
T24 chain: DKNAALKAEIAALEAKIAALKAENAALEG
In words: two-hybrid library CCmax. The settings on record: mean of both orientations.

The target of assay [25] is T25, 4H2949-AA.
T25 chain: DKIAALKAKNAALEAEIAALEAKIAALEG
In words: two-hybrid library CCmax. The settings on record: mean of both orientations.

Assay [26] has as its target T26, 4H342-AA.
T26 chain: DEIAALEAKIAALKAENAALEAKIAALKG
In words: two-hybrid library CCmax.

Assay [27] concerns the target T27, 4H2505-AA.
T27 chain: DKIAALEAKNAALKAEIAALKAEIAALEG
In words: two-hybrid library CCmax. The following applies: mean of both orientations.

Assay [28] concerns the target T28, 4H335-AA.
T28 chain: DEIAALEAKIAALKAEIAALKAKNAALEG
In words: two-hybrid library CCmax.

Assay [29] deals with T29, 4H3921-AA.
T29 chain: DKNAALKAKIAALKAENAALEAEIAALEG
Nature of the assay: two-hybrid library CCmax. The following applies: mean of both orientations.

Assay [30] addresses T30, 4H2642-AA.
T30 chain: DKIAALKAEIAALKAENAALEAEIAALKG
Nature of the assay: two-hybrid library CCmax. The settings on record: mean of both orientations.

Assay [31] deals with T31, 4H3112-AA.
T31 chain: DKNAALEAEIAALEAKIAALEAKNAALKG
In words: two-hybrid library CCmax. The settings on record: mean of both orientations.

Assay [32] deals with T32, 4H678-AA.
T32 chain: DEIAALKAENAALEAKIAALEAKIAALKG
In words: two-hybrid library CCmax. The following applies: mean of both orientations.

Assay [33] has as its target T33, 4H454-AA.
T33 chain: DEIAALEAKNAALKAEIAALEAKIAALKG
In words: two-hybrid library CCmax. The settings on record: mean of both orientations.

Assay [34] deals with T34, 4H3606-AA.
T34 chain: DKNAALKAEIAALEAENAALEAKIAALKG
In words: two-hybrid library CCmax. The following applies: mean of both orientations.

The target in assay [35] is T35, 4H2944-AA.
T35 chain: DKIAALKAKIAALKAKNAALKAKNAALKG
Nature of the assay: two-hybrid library CCmax. The following applies: mean of both orientations.

Assay [36] deals with T36, 4H2617-AA.
T36 chain: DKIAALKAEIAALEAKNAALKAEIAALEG
In words: two-hybrid library CCmax. The settings on record: mean of both orientations.

Assay [37] addresses T37, 4H429-AA.
T37 chain: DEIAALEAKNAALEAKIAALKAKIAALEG
In words: two-hybrid library CCmax. The following applies: mean of both orientations.

For assay [38], the target named is T38, 4H2354-AA.
T38 chain: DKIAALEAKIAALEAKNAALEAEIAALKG
In words: two-hybrid library CCmax. The settings on record: mean of both orientations.

The target of assay [39] is T39, 4H317-AA.
T39 chain: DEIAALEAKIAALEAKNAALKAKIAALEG
Nature of the assay: two-hybrid library CCmax. The following applies: mean of both orientations.

The target of assay [40] is T40, 4H2575-AA.
T40 chain: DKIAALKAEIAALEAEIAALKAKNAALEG
In words: two-hybrid library CCmax. The settings on record: mean of both orientations.

For assay [41], the target named is T41, 4H881-AA.
T41 chain: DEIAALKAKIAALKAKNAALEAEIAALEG
Nature of the assay: two-hybrid library CCmax. The following applies: mean of both orientations.

For assay [42], the target named is T42, 4H2837-AA.
T42 chain: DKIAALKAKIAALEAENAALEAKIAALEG
Nature of the assay: two-hybrid library CCmax. The following applies: mean of both orientations.

Assay [43] has as its target T43, 4H3844-AA.
T43 chain: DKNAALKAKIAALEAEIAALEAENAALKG
Nature of the assay: two-hybrid library CCmax. The settings on record: mean of both orientations.

The target of assay [44] is T44, 4H3655-AA.
T44 chain: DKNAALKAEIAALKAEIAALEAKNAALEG
Nature of the assay: two-hybrid library CCmax. The following applies: mean of both orientations.

Assay [45] deals with T45, 4H794-AA.
T45 chain: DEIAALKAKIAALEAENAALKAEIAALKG
Nature of the assay: two-hybrid library CCmax. The following applies: mean of both orientations.

The target of assay [46] is T46, 4H2466-AA.
T46 chain: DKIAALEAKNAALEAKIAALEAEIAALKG
In words: two-hybrid library CCmax. The settings on record: mean of both orientations.

The target in assay [47] is T47, 4H605-AA.
T47 chain: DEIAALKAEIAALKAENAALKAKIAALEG
Nature of the assay: two-hybrid library CCmax. The settings on record: mean of both orientations.

The target in assay [48] is T48, 4H3427-AA.
T48 chain: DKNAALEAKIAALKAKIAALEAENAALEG
Nature of the assay: two-hybrid library CCmax. The settings on record: mean of both orientations.

For assay [49], the target named is T49, 4H234-AA.
T49 chain: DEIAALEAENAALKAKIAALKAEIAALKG
Nature of the assay: two-hybrid library CCmax.

Assay [50] concerns the target T50, O9.
T50 chain: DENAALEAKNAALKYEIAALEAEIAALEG
Nature of the assay: two-hybrid library CCNG1.

DKNQQLKQKIQELEQEIQELEWENQELEQ [4H3843-bN]: the interaction score in assay [1] was -1.58; in assay [2], -0.63; in [3] it was -1.23; in assay [4], -0.816; in [5], -1.05; in assay [6], -0.869. In addition, the interaction score was -1.56 in [7]; -2.09 in assay [8]; -0.609 in assay [9]; -1.71 in [10]; -1.28 in assay [11]; -1.31 in assay [12].
Regarding DEIAALEAENAALKAKIAALKAEIAALKG [4H234-AA], the interaction score in assay [13] was 1.8; in assay [14], 2.04; in assay [15] it was -0.996; in [16], 0.577; in [17] it was -1.27; in assay [18] it was 0.581. For the same molecule, the interaction score in [19] is 0.359; in [20], -1.42; in assay [21], 1.77; in [22], 0.324; in [23] it was -0.786; in assay [24], -0.624. Further, the interaction score in assay [25] was 1.73; in assay [26] it was 0.11; in assay [27], 1.67; in [28], -1.24; in [29] it was 0.388; in assay [30], 0.56. The interaction score in [31] is -1.22; in [32] it was 1.31; in assay [33], 1.79; in assay [34], -0.346; in assay [35] it was -1.71; in assay [36] it was -1.32. In addition, the interaction score in assay [37] is -1.25; in [38], -0.425; in [39], -1.11; in [40], -0.746; in assay [41], -1.05; in [42], -1.08. In addition, the interaction score is -1.28 in assay [43]; -0.983 in [44]; -1.24 in assay [45]; -0.379 in [46]; -1.45 in [47]; -1.32 in assay [48]. Besides, the interaction score in assay [49] amounted to 1.91.
Take DENAALEAKNAALKYEIAALEAEIAALEG [O9]: the interaction score in assay [50] was -2.24.
